System: Escherichia coli TOP10
Assay: shrunken log2 fold change of peptide-encoding DNA abundance (4.5 h post-induction vs induction); higher = less antimicrobial activity (less host growth inhibition)
Conditions: time post-induction: 4.5 h; library: site-saturation at positions 5, 18, 19, 20
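Also: peptides expressed intracellularly from a pBAD plasmid library in pooled LB shake-flask culture, induced with 0.3% L-arabinose, DNA abundance read by NGS, three biological replicates, DESeq2 with apeglm shrinkage.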

Row | Sequence | shrunken log2 fold change
1 | RRIRSRPPRLPRPRPRPFELPRP | 0.0413
2 | RRIRVRPPRLPRPRPRPVFCPRP | 0.142
3 | RRIRMRPPRLPRPRPRPVRFPRP | 0.725
4 | RRIRMRPPRLPRPRPRPCFNPRP | -0.000544
5 | RRIRHRPPRLPRPRPRPNMEPRP | -0.0709
6 | RRIRPRPPRLPRPRPRPIQDPRP | -0.239
7 | RRIRWRPPRLPRPRPRPPHAPRP | 1.04
8 | RRIRIRPPRLPRPRPRPNCMPRP | -0.287
9 | RRIRGRPPRLPRPRPRPDDAPRP | 0.314
10 | RRIRVRPPRLPRPRPRPKTPPRP | 0.334
11 | RRIRRRPPRLPRPRPRPADWPRP | 0.652
12 | RRIRERPPRLPRPRPRPNPHPRP | -0.234
13 | RRIRRRPPRLPRPRPRPTYVPRP | 0.00831
14 | RRIRMRPPRLPRPRPRPMKCPRP | 0.0208
15 | RRIRNRPPRLPRPRPRPAWCPRP | 0.0129
16 | RRIRLRPPRLPRPRPRPWFGPRP | -0.149
17 | RRIRDRPPRLPRPRPRPWANPRP | 0.0419
18 | RRIRWRPPRLPRPRPRPCMNPRP | 0.297
19 | RRIRCRPPRLPRPRPRPCGEPRP | 0.218
20 | RRIRSRPPRLPRPRPRPHAGPRP | 0.428
21 | RRIRGRPPRLPRPRPRPMMVPRP | 0.294
22 | RRIRKRPPRLPRPRPRPIAQPRP | 0.208
23 | RRIRFRPPRLPRPRPRPMLIPRP | -0.217
24 | RRIRCRPPRLPRPRPRPAEKPRP | -0.0214
25 | RRIRMRPPRLPRPRPRPCLVPRP | 0.0451

Row | Sequence | shrunken log2 fold change
26 | RRIRERPPRLPRPRPRPECIPRP | 0.248
27 | RRIRCRPPRLPRPRPRPPPEPRP | 1.32
28 | RRIRMRPPRLPRPRPRPVLAPRP | 0.493
29 | RRIRDRPPRLPRPRPRPPRGPRP | 1.31
30 | RRIRTRPPRLPRPRPRPMNTPRP | -0.609
31 | RRIRCRPPRLPRPRPRPNQWPRP | -0.117
32 | RRIRGRPPRLPRPRPRPPADPRP | 1.59
33 | RRIRGRPPRLPRPRPRPEDMPRP | 1.02
34 | RRIRERPPRLPRPRPRPSIQPRP | -0.0558
35 | RRIRMRPPRLPRPRPRPCYCPRP | -0.289
36 | RRIRMRPPRLPRPRPRPQYPPRP | -0.0385
37 | RRIRCRPPRLPRPRPRPCEVPRP | -0.251
38 | RRIRSRPPRLPRPRPRPLVKPRP | -0.111
39 | RRIRIRPPRLPRPRPRPACEPRP | 0.17
40 | RRIRYRPPRLPRPRPRPHHMPRP | -0.311
41 | RRIRWRPPRLPRPRPRPLQFPRP | 0.0403
42 | RRIRVRPPRLPRPRPRPKLGPRP | 0.173
43 | RRIRYRPPRLPRPRPRPHLVPRP | -0.0159
44 | RRIRERPPRLPRPRPRPIVPPRP | -0.25
45 | RRIRPRPPRLPRPRPRPPYGPRP | -0.268
46 | RRIRARPPRLPRPRPRPWIVPRP | -0.0598
47 | RRIRIRPPRLPRPRPRPKEGPRP | 0.00692
48 | RRIRKRPPRLPRPRPRPRFVPRP | 0.0638
49 | RRIRFRPPRLPRPRPRPNNCPRP | -0.167
50 | RRIRARPPRLPRPRPRPYGQPRP | -0.163

Row | Sequence | shrunken log2 fold change
51 | RRIRVRPPRLPRPRPRPPATPRP | 0.18
52 | RRIRCRPPRLPRPRPRPPINPRP | -0.319
53 | RRIRSRPPRLPRPRPRPKFQPRP | 0.146
54 | RRIRARPPRLPRPRPRPDASPRP | 1.94
55 | RRIRTRPPRLPRPRPRPMINPRP | -0.239
56 | RRIRWRPPRLPRPRPRPHKKPRP | 0.028
57 | RRIRPRPPRLPRPRPRPSCHPRP | -0.31
58 | RRIRKRPPRLPRPRPRPHILPRP | 0.0523
59 | RRIRERPPRLPRPRPRPQVYPRP | -0.023
60 | RRIRKRPPRLPRPRPRPDNGPRP | -0.0558
61 | RRIRSRPPRLPRPRPRPECKPRP | 0.275
62 | RRIRRRPPRLPRPRPRPIMKPRP | -0.0396
63 | RRIRWRPPRLPRPRPRPGSQPRP | 0.584
64 | RRIRQRPPRLPRPRPRPYRKPRP | -0.0156
65 | RRIRARPPRLPRPRPRPLKNPRP | -0.127
66 | RRIRKRPPRLPRPRPRPRPGPRP | 0.721
67 | RRIRCRPPRLPRPRPRPQAKPRP | 0.31
68 | RRIRMRPPRLPRPRPRPWYYPRP | -0.0257
69 | RRIRKRPPRLPRPRPRPYFTPRP | -0.0968
70 | RRIRMRPPRLPRPRPRPKLPPRP | 1.13
71 | RRIRHRPPRLPRPRPRPKFYPRP | -0.148
72 | RRIRWRPPRLPRPRPRPERLPRP | 0.277
73 | RRIRERPPRLPRPRPRPNRPPRP | -0.123
74 | RRIRNRPPRLPRPRPRPNYRPRP | -0.264
75 | RRIRVRPPRLPRPRPRPKWRPRP | 0.327

Row | Sequence | shrunken log2 fold change
76 | RRIRVRPPRLPRPRPRPANNPRP | -0.272
77 | RRIRSRPPRLPRPRPRPVQGPRP | 0.108
78 | RRIRFRPPRLPRPRPRPEPCPRP | -0.111
79 | RRIRHRPPRLPRPRPRPDYCPRP | -0.01
80 | RRIRGRPPRLPRPRPRPKYLPRP | 0.32
81 | RRIRWRPPRLPRPRPRPIYNPRP | -0.896
82 | RRIRGRPPRLPRPRPRPNEIPRP | 0.559
83 | RRIRHRPPRLPRPRPRPDMCPRP | -0.173
84 | RRIRPRPPRLPRPRPRPWFRPRP | -0.0017
85 | RRIRIRPPRLPRPRPRPPEDPRP | 0.324
86 | RRIRRRPPRLPRPRPRPCHTPRP | -0.24
87 | RRIRRRPPRLPRPRPRPYGDPRP | -0.251
88 | RRIRNRPPRLPRPRPRPKDFPRP | -0.000911
89 | RRIRYRPPRLPRPRPRPLYSPRP | -1.15
90 | RRIRQRPPRLPRPRPRPGYPPRP | -0.181
91 | RRIRTRPPRLPRPRPRPYETPRP | -0.00043
92 | RRIRCRPPRLPRPRPRPFPLPRP | -0.0156
93 | RRIRDRPPRLPRPRPRPWCTPRP | 0.107
94 | RRIRVRPPRLPRPRPRPWIAPRP | 0.201
95 | RRIRFRPPRLPRPRPRPKWIPRP | -0.699
96 | RRIRDRPPRLPRPRPRPPGLPRP | -0.317
97 | RRIRRRPPRLPRPRPRPAEIPRP | 1.1
98 | RRIRQRPPRLPRPRPRPQTHPRP | -0.293
99 | RRIRCRPPRLPRPRPRPKLRPRP | 0.564
100 | RRIRGRPPRLPRPRPRPYSNPRP | 0.0659

Row | Sequence | shrunken log2 fold change
101 | RRIRGRPPRLPRPRPRPLTRPRP | 0.803
102 | RRIRERPPRLPRPRPRPTMHPRP | -0.229
103 | RRIRTRPPRLPRPRPRPILEPRP | -0.0122
104 | RRIRCRPPRLPRPRPRPFRQPRP | -0.0498
105 | RRIRLRPPRLPRPRPRPLTCPRP | -0.0184
106 | RRIRCRPPRLPRPRPRPVLMPRP | -0.00563
107 | RRIRHRPPRLPRPRPRPPEHPRP | -0.116
108 | RRIRGRPPRLPRPRPRPDEFPRP | 0.561
109 | RRIRTRPPRLPRPRPRPHAEPRP | 0.17
110 | RRIRKRPPRLPRPRPRPQCYPRP | -0.114
111 | RRIRMRPPRLPRPRPRPGRDPRP | 1.4
112 | RRIRHRPPRLPRPRPRPWYMPRP | -0.324
113 | RRIRIRPPRLPRPRPRPTAFPRP | -0.532
114 | RRIRQRPPRLPRPRPRPSACPRP | 0.42
115 | RRIRFRPPRLPRPRPRPHRNPRP | -0.257
116 | RRIRHRPPRLPRPRPRPGSPPRP | -0.171
117 | RRIRSRPPRLPRPRPRPWLFPRP | -0.183
118 | RRIRQRPPRLPRPRPRPLTTPRP | 0.106
119 | RRIRRRPPRLPRPRPRPRQWPRP | 0.169
120 | RRIRCRPPRLPRPRPRPCPGPRP | -0.191
121 | RRIRHRPPRLPRPRPRPSGAPRP | -0.0845
122 | RRIRNRPPRLPRPRPRPEFDPRP | 0.0248
123 | RRIRYRPPRLPRPRPRPDAQPRP | -0.0145
124 | RRIRSRPPRLPRPRPRPSWKPRP | -0.0985
125 | RRIRWRPPRLPRPRPRPKERPRP | 0.0355

Row | Sequence | shrunken log2 fold change
126 | RRIRHRPPRLPRPRPRPMAMPRP | 0.00505
127 | RRIRDRPPRLPRPRPRPRRIPRP | 0.0214
128 | RRIRQRPPRLPRPRPRPMHCPRP | 0.0165
129 | RRIRWRPPRLPRPRPRPSRYPRP | -0.483
130 | RRIRKRPPRLPRPRPRPWPWPRP | 0.847
131 | RRIRERPPRLPRPRPRPDFWPRP | 0.214
132 | RRIRWRPPRLPRPRPRPAWFPRP | 0.251
133 | RRIRIRPPRLPRPRPRPKIWPRP | 0.145
134 | RRIRKRPPRLPRPRPRPGGKPRP | 0.123
135 | RRIRFRPPRLPRPRPRPHQHPRP | -0.582
136 | RRIRYRPPRLPRPRPRPEVHPRP | -0.187
137 | RRIRVRPPRLPRPRPRPVAQPRP | 0.247
138 | RRIRNRPPRLPRPRPRPDNFPRP | -0.00141
139 | RRIRPRPPRLPRPRPRPRWKPRP | 0.176
140 | RRIRARPPRLPRPRPRPRYGPRP | -0.0744
141 | RRIRKRPPRLPRPRPRPFGLPRP | -0.0305
142 | RRIRIRPPRLPRPRPRPIMMPRP | -0.132
143 | RRIRDRPPRLPRPRPRPVEHPRP | 0.115
144 | RRIRIRPPRLPRPRPRPPTEPRP | -0.323
145 | RRIRLRPPRLPRPRPRPDYPPRP | -0.307
146 | RRIRERPPRLPRPRPRPDVLPRP | -0.138
147 | RRIRPRPPRLPRPRPRPETCPRP | 0.787
148 | RRIRVRPPRLPRPRPRPTDHPRP | 0.00915
149 | RRIRGRPPRLPRPRPRPNNGPRP | -0.363
150 | RRIRYRPPRLPRPRPRPVDSPRP | 0.0413
